Assay [1] addresses T1, ATP-binding cassette transporter A1 (ABCA1) (Homo sapiens, UniProt O95477).
T1 construct: recombinant ABCA1 peptide (Abcam #ab125995), C-terminal domain 2085–2245aa
T1 sequence (O95477 2085-2245): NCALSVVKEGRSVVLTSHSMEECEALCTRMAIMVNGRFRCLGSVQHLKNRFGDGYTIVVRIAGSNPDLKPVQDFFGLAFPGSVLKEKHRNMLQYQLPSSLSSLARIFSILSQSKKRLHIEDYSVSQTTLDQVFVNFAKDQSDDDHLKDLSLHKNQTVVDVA
In words: SPR (Biacore […], immobilized ABCA1 C-terminal peptide on CM5 chip); also identified by NPOT in THP-1 extract. A general note: SPR reads the build-up and loss of mass on a sensor chip optically.

Assay [2] concerns the target T2, recombinant human retinal dehydrogenase-1 (ALDH1A1) (human, UniProt P00352 1-501).
T2 construct: retinal dehydrogenase 1 (aldehyde dehydrogenase 1 family, member A1), human, recombinant; also called ALDHA1; aldehyde dehydrogenase 1 family, member A1
T2 sequence (looked up): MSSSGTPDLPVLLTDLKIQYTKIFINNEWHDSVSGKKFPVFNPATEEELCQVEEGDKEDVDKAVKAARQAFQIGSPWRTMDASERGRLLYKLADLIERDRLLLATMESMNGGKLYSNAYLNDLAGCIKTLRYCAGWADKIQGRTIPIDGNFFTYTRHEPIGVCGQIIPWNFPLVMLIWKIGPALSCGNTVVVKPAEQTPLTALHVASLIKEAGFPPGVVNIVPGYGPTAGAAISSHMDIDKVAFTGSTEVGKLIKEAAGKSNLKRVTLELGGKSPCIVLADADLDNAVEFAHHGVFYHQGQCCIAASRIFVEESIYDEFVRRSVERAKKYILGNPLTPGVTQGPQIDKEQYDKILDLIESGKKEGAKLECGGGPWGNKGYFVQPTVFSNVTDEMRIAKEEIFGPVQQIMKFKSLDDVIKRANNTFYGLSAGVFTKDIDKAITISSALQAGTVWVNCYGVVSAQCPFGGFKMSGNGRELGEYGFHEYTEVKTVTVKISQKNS
Description: SPR; Biacore 3000; ABCA1 peptide immobilised on a CM5 chip by amine coupling; proteins dialysed against HBS-E (10 mM Hepes, 150 mM NaCl, 3 mM EDTA); ALDH1A1 injected at 6e-8 to 1e-6 M; 1:1 fit (Langmuir or drifting baseline). Conditions: both partners purified.

The Kd is the equilibrium constant for the complex coming apart.

Regarding `CN1c2ccccc2C(=O)N2CCc3c([nH]c4ccccc34)C21` (stereo in doubt) [evodiamine], the Kd in assay [1] was 810 nM.

B1: recombinant ABCA1 peptide (Abcam #ab125995, covering C-terminal domain 2085-2245aa) (domain or fragment, UniProt O95477 2085-2245, looked up)
chain: T1 sequence (O95477 2085-2245)
notes: check the Abcam data sheet; source: bought: Abcam #ab125995, recombinant
On to B1, for which, in assay [2], the Ka was determined as 1.25e+06 M⁻¹ and the Kd is 803 nM.

The record behind these values is publication PMC6056500, “Novel interactomics approach identifies ABCA1 as direct target of evodiamine, which increases macrophage cholesterol efflux” (Scientific Reports, 2018).
